Experimental data as given in US20020068706A1.

Assays:
CDK4/cyclin D1 complex = CDK4/cyclin D1 complex (UniProt P11802); test: cell-based or functional assay
cdc2/cyclin B complex = cdc2/cyclin B complex (UniProt P06493); test: cell-based or functional assay
Chain of cdc2/cyclin B complex (P06493 whole entry, one chain of several): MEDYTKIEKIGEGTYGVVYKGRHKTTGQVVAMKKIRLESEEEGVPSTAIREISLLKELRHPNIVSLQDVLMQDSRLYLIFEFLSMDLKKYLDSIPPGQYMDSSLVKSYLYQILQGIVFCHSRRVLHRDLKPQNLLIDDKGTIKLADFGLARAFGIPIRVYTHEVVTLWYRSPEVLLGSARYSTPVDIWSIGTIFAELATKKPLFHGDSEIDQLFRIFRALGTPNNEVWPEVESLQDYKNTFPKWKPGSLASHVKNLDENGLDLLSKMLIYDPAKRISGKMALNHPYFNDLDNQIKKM

Chain of CDK4/cyclin D1 complex (P11802 whole entry, chain 1 of 2): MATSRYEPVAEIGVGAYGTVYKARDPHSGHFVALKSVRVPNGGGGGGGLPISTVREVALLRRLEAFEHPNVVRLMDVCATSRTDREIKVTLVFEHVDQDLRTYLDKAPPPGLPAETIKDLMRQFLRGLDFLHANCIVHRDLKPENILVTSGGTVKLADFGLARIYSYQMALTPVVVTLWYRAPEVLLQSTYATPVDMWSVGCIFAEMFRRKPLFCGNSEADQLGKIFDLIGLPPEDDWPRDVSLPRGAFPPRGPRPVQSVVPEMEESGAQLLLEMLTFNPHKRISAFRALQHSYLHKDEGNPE
Chain of CDK4/cyclin D1 complex (P24385 whole entry, chain 2 of 2, further chain): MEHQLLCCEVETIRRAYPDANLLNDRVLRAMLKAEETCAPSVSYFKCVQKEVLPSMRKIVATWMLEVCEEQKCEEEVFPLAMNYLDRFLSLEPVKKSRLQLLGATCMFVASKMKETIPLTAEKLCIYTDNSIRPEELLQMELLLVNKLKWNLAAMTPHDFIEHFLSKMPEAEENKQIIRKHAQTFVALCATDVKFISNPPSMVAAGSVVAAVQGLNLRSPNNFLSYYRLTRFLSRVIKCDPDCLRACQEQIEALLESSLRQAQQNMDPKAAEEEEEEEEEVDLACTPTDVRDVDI

Substance: p27 (from UniProt P46527 1-198)
- IC50 of in vitro kinase assay (32P incorporation into Gst-Rb) (CDK4/cyclin D1 complex): 63 nM
- IC50 of in vitro kinase assay (32P incorporation into Gst-Rb) (cdc2/cyclin B complex): 20 nM
